Assay: Study of optimal reaction conditions (pH and temperature)
Format: biochemical
Settings: 10 μM NGA2-Asn-Fmoc; buffers pH 3.5-9.0
Procedure: Study of the optimal reaction pH for Endo-Om was carried out as follows. A reaction solution containing any of various buffers having a final concentration of 100 mM, 0.5 M of NaCl, 10 μM of NGA2-Asn-Fmoc, and an Endo-Om purified enzyme solution (total volume: 10 μl) was incubated at 50° C. for 1 hour, and heated at 95° C. for 5 minutes, thereby stopping the enzyme reaction. The buffers used herein were a sodium citrate buffer (pH 3.5-5.5), a sodium acetate buffer (pH 4.5-6.0), a sodium phosphate buffer (pH 6.0-7.5), a MOPS-NaOH buffer (pH 6.5-8.0), and a Tris-HCl buffer (pH 8.0-9.0). The reaction solution was subjected to HPLC by the method described in Example 4, and the enzymatic activity was calculated. The optimal reaction temperature was studied by changing the reaction temperature in the activity measurement method described in Example 4 in the range of 10° C. to 60° C.
(§1) Study of the optimal reaction pH for Endo-Cp was carried out as follows. A reaction solution containing any of various buffers having a final concentration of 100 mM, 0.5 M of NaCl, 10 μM of NGA2-Asn-Fmoc, and an Endo-Cp partially purified enzyme solution (total volume: 10 μl) was incubated at 30° C. for 3 hours, and heated at 95° C. for 5 minutes, thereby stopping the enzyme reaction. The buffers used herein were a sodium citrate buffer (pH 3.5-5.5), a sodium acetate buffer (pH 4.5-6.0), a sodium phosphate buffer (pH 6.0-7.5), a MOPS-NaOH buffer (pH 6.5-8.0), and a Tris-HCl buffer (pH 8.0-9.0). The reaction solution was subjected to HPLC by the method described in Example 8, and the enzymatic activity was calculated. The optimal reaction temperature was studied by changing the reaction temperature in the activity measurement method described in Example 8 in the range of 10° C. to 70° C.
as §1, with “Endo-Pa” for “Endo-Cp”, “12,” for “8,”, “The optimal reaction temperature was studied by changing the reaction temperature in the activity measurement method described in Example 8 in the range of 10° C. to 70° C.” left out
Study of the optimal reaction pH for Endo-Zr was carried out as follows. […] The reaction solution was subjected to HPLC by the method described in Example 16, and the enzymatic activity was calculated. […]

Row | Molecule | Optimal pH (optimal reaction pH)
1 | Endo-Pa: endo-β-N-acetylglucosaminidase from Pichia anomala ATCC36904, amino acid sequence SEQ ID NO. 9, 656 amino acids (protein, listed as Pichia anomala) MQHDHAAIKFEEDSISSQRFSSLDEVEKWYNTKNRSPLDDLRIPRESLSHYNRFRDNNDEIKVLVCHDFKGNYQEGEDENPLGYFPHSSGQHYFIQFPSLVDLFIFFSHYKIAVPPVSWINSLHRQGIPVLGTLIFEGTDVSESDKLLEKNENGDFKYLEILCELVRHYGFDGWLVNMESHFSSVAKAQDLLLFDEALRSTLHLKVPGSKLIWYDSLITQKNRVFYQNAVNEWNYDHFSTSDLFFTNYWWNEEDLKRNILNIGLQGVKQKLFVGVDIWGRGSRIGNGGFESGLAINYLKRYSTNVALFAPAWTYENFEEDQFLIKDRKFWIGDQTSDETGGSVATYVSHYTTPVYVKDQNVKFYTNFSVGEGTKYRVFAHTVFKNNWVNGNLQLPTPIIDNEKRIDIYYKESFNGGSSLKVTQRNSILNDGKSNILQLFSFKNDIHSNNLNVSVSFKYLSEIPLNSTFQLEIKFYIERRYRSVTRVRDGTFKLPLAFSNKNWKYIETSFALPRLQIREHFVLEGLQIRWVDNVDELSSSIGTSGDFTESWIIVPQNSDPNAVYELLIGDLLVEGIKTANGNIDAVTKLSRKITLDSRSILATWKDDTEVLYWIIYVNAKFLGIAHKSLWRVQRGDKLRVDVFTRSGKLVKGEDIFI | 5.0-5.5
2 | Endo-Zr: endo-β-N-acetylglucosaminidase from Zygosaccharomyces rouxii ATCC2623, amino acid sequence SEQ ID NO. 13, 639 amino acids (protein, listed as Zygosaccharomyces rouxii) MKRINQVPGKPEITSLYFDDLNSLQRWFDKGFMDSRDLSNVPKERYSNYVKFEKDSIITIPNLSARKTEIIVCHDFKGGYQSGHDLYPNGQYGTESCKPYSLRYPEIVDKFVYFSHHCVTIPPSPWTNYLHRHSIPVLGTLILEHYPHNGELFKKNAKGEFLYVKYLVELCRKFHFEGWLINFETVFGNNSKQVIPFLRELTARVECEIYGGSVIWYDAFTTFSNKPSHQNEVNLFNYDAYENSSQFMTNYMWDSHNVGNSLRNVGALGMHSHVALGVDVWGRNMQVCRGGFESNIAIYYAKRFGTNAVIFAPGWTYENFGEDQFYEKDDIFWGNIKSTLQLDSYSDSQLSSWFVSESKKTRYFTTFFSTGSGNFFNLNGRRISNDNWVQLGLSTPFPVNSHSYLSFKDSFVGGSCLALPLSPMENGKLHLFRFEQFIKDQQKTSDSEIRVKLSYKSLGALPPVKLVIKCFVIRRGKRSKTILKVDDVSLVLPLSHSACQTAQGSTKWAVVEQIVPLPSLESRFLEEYYVEDAHLEWTMDNNHDEWLMVPERTEDLDCKLLIGSLCLEIGPHEDNNKRQIVRNGPQLSWQDNESSFMWLKLQDGKLDSVLFTPTTKVNGKQPTILECGRNGTLKFVVKK | 4.5-5.0
3 | Endo-Om: endo-β-N-acetylglucosaminidase from methylotrophic yeast Ogataea minuta IFO10746, amino acid sequence SEQ ID NO. 1, 772 amino acids (protein, listed as Ogataea minuta) MAQSQLLGGAVRPVFFDKLEELRRWHTQSANLSRESELDSLNVATEPFSSYERAQTGSGSRSSEPVPGDKEDPPIKLMVCHDFKGGYQDYEDAQPLGYFPHPTGSRYFLQYPQLIDQFVYFSHHRVTVPPVNWINFCHRNGIKCFGTVIFEGNASKDFEELDRLVSRDEKGDFVFVDALIKLAAHYGFDGYLLNIETTFSNTKIAADLEPFAEQLKSGLHCLDSKNELIWYDSYVFPANKVSYTNGVTESNYNFFSLSDAFFSNYWWNIKNLQENIKNVGVLGVQKKIYVGYDVWGRGTLVGKGGFDSSLACKMIAKFKSNVALFAPAWTYESLGPKDFNQNDARFWIGLFENESSISSTVPPHSSAVYKINESSFIFYTNFSSGEGNRFFSKGSEVYRKNWVNGSLQFDLPIDLHRKDKNGLQWALDKSDAFHGGACLEIKYSEIKDENGYQIFNNQMVSDFTLFNFTKECHFPTVNVKVTYKLNHKTKSTFKIKIKYIIERRFRSVQTVRTGYLTIPLLSTSGKWFTVEESFQINLQTSHEYIVLESAHVTYDEDRSADSFFRSYIVEDSAITSVIDNEEYEKLINSEIYNDDEDEDWILVPSDVSISSSESQSNDSKTQYLGRKLFGNKSTPKTRTLEGTAPLLRIGEFAIISANNYPSSNFLAVTSVKSIESSRLEGDSLVLLNWQVGEGHQKGVCYYIIYVNGAVVGLSVAPKFIYQDTELASENSASARSNYKKSGLGSSSDRKSKVRVDSVDKLGNVFTGSEVWV | about 5.5
4 | Endo-Cp: endo-β-N-acetylglucosaminidase from Candida parapolymorpha DL-1 ATCC26012, amino acid sequence SEQ ID NO. 5, 745 amino acids (protein, listed as Candida parapolymorpha) MPRNTAKHSSLPQTNLPLSSLESSFFDSLDELANWERRIHEKSFELDELNKPTEKLAHYTRARQQSTSEDVKLLVCHDLKGGYQVNEDEDPLGYFPHPDGQHYFLQYPQLVDKFVYFSHHRVSIPPVSWINVCHRNAIKCLGTVIFEGNTYRDFEEADKLLTKQDGEYVFVRCLVALVEYFQFDGYLFNIETRFSNTRIASLLEPFLEQLRAELHVRNPSTELIWYDSYIYPENRVLYKNGVTEANYNFFSCCDSFFTNYWWNVKHLQDNIKNVGVLGSRLKVYAGYDVWGRGTMIGKGGYDSALACQMIKKYRSNVALFAPAWTYEYLARKDFTQNDTRFWIGLFDGESSMATTFKPYSSPLYKINDSNFVFYTNFGSGEGCAFYECGEKVYRDNWVNGSLQMEIPYAIHTRNKNGIQWTLSKEDSFHGGSCVEIKYNEVVDDKGYQVFNNQTINSFSLFSFVQDCSFPTVNVKLTYKLNHKTKSFFKLKIGYYIERRYRTVQKVRSGCLVVPLLSTNDQWFTIEEPFHVSLQNSHEFIVLDSATIFYEETEDPFMRAHVVEDQSTSSVIDNEEYEKLMNSEIYFDDEDEDWILVPSDISMESTDNGGRENHTWKVISNQIRKKHPKSHPSTSPVLKLGELAIINANDYPSDSFFKLMPVNSIDVRRWEGKILLIWKTNQDSVLYHLIFVDDVFQGISLVSKFVFEDQAVDEKSFKTKSGGSTKVRIDTVNRLGILVKGTDM | about 5.5
